The source of these data is paper PMC4304120.

In test [1] the target is thrombin. Kind of test: SPR; BIAcore T100; thrombin (2000 RU) amine-coupled to a CM5 chip; RGD-hirudin or mutants injected at 30 uL/min in 10 mM HEPES, 150 mM NaCl, 0.005% Surfactant P20, pH 7.5; 1:1 Langmuir fit, KD calculated from ka and kd.
Test [2] has as its target thrombin.

For the substance RGD-hirudin D55A, in the test with thrombin [1], the Kd was 1030 nM, the koff was 0.000383 s⁻¹ and the on-rate (kon) was 371 M⁻¹ s⁻¹. This substance yielded an anti-thrombin specific activity (Titration Testing Method, plasma clotting) with thrombin [2] of 12000 ATU/mg.
The corresponding values for RGD-hirudin E57A are 2410 nM, 0.000374 s⁻¹, 155 M⁻¹ s⁻¹ and 11000 ATU/mg.
For RGD-hirudin I59A the same measures were 19000 nM, 0.00139 s⁻¹, 73 M⁻¹ s⁻¹ and 9000 ATU/mg.
Consider RGD-hirudin Q53A, for which, in the test with thrombin [1], the Kd was 570 nM, the koff was 3.37e-05 s⁻¹ and the on-rate constant (kon) was 59.2 M⁻¹ s⁻¹. The substance also yielded an anti-thrombin specific activity (Titration Testing Method, plasma clotting) in the test with thrombin [2] of 14000 ATU/mg.
The corresponding values for RGD-hirudin S50A are 35 nM, 3.94e-05 s⁻¹, 1120 M⁻¹ s⁻¹ and 16000 ATU/mg.
Take RGD-hirudin Y3A: the koff in the test with thrombin [1] was 0.00288 s⁻¹. Moreover, in the test with thrombin [2], the anti-thrombin specific activity (Titration Testing Method, plasma clotting) came out at 4000 ATU/mg.
With recombinant RGD-hirudin, in the test with thrombin [1], the Kd is 15.5 nM, the off-rate constant (koff) was 2.73e-05 s⁻¹ and the on-rate constant (kon) was 1770 M⁻¹ s⁻¹. In addition, the anti-thrombin specific activity (Titration Testing Method, plasma clotting) with thrombin [2] was 18000 ATU/mg.

By Kd is commonly meant the equilibrium constant for the complex coming apart. For orientation: koff means the first-order rate constant of dissociation. In general, kon refers to the second-order rate constant of association.
